One series has as its target T1, PpEst (Ectopseudomonas oleovorans, UniProt W6R2Y2).
T1 construct: gene tesA
Nature of the series: 4-NPB hydrolysis inhibition, […] nm. Format: biochemical.

Substrate in the series “purified protein”: CCCC(=O)Oc1ccc([N+](=O)[O-])cc1
Nature of the series: purified protein. Particulars: 20 mM Tris-HCl pH 8.0, 150 mM NaCl, 0.1% Triton X-100, 25 °C, 'Exponential Rise to maximum' fit. Format: biochemical, Ectopseudomonas oleovorans.

What is called Ki is a measure of affinity in units of concentration, obtained from inhibition or displacement. For `O=C(O)c1ccc(C(=O)OCCCCO)cc1` [BuTA, 4-(4-hydroxybutoxycarbonyl)benzoic acid], the inhibition constant Ki at PpEst stood at 670 µM.

B1: PpEst (Ectopseudomonas oleovorans CECT 5344) (protein)
chain: GTLLVVGDSISAAFGLDSRQGWVALLEKRLSEEGFEHSVVNASISGDTSAGGAARLSALLAEHKPELVIIELGGNDGLRGQPPAQLQQNLASMVEQSQQAGAKVLLLGMKLPPNYGVRYTTAFAQVFTDLAEQKQVSLVPFFLEGVGGVPGMMQADGIHPAEAAQEILLDNVWPTLKPML
One may read the Km as the concentration of substrate that gives half-maximal velocity. By kcat is commonly meant the maximal rate divided by the concentration of active sites. In the case of B1, in “purified protein”, the Km came out at 4.85 mM and the kcat is 1.98 s⁻¹.
